Test results reported in US12312397B2, “Anti-O2 antibodies and uses thereof” (priority 2016, dated 2025).
Residue numbers refer to the chain shown, from its start.

B1: KPS44: Class III anti-O2 antigen human mAb; VH SEQ ID NO: 116, VL SEQ ID NO: 117 (antibody, V domains shown)
VH: EVHLVESGGGLVKPGGSLRLSCAASGFTFKNAWMSWIRQAPGKGLEWVGRVKSEVDGGTIDYGVPVRGRFTISRDDSQGTLSLEMNSLKDDDTGVYYCRAFWSGFPTGYWGQGALVSVSS
VL: QSVLTQPPSLSAAPGQTITIACSGTSSNIGSDSVSWFQQFPGTAPRVLIYENNKRPSGISDRFSGSKSGTSVTLGITGLQTGDEADYYCATWDSSLSAYVFGSGTKVTVL
modifications: Description of Artificial Sequence: SyntheticKPS44/KPS44-G1 VH polypeptide; Description of Artificial Sequence: SyntheticKPS44 VL polypeptide
B2: KPS44v2017: sequence-optimized KPS44, Class III; VH SEQ ID NO: 202, VL SEQ ID NO: 203 (antibody, V domains shown)
VH: B1 VH with W102F
VL: B1 VL with D32N, S33Y, W92F
modifications: Description of Artificial Sequence: SyntheticKPS44-v2017/KPS44-G2/KPS44-G3 VH polypeptide; Description of Artificial Sequence: SyntheticKPS44-v2017/KPS44-G1 VL polypeptide
B3: KPL26: Class II anti-O2 antigen human mAb; VH SEQ ID NO: 89, VL SEQ ID NO: 90 (antibody, V domains shown)
VH: EVQLVESGGGLVQSGGSLRLSCETSGFIFGSSWMTWVRQAPGKGLEWVATINPDGSATSYEDSVRGRFAVSRDNAKNSVYLQMNSLRAEDTAVYFCTRNKAYNALDYWGQGTLVTVSS
VL: QSALTQPPSASGSPGQSVTLSCTGTSSDVGGNNYVSWYQQHPGKAPKLIIYEVSKRPSGVPNRFSGSKSGNTASLTVSGLQAEDEADYYCSSFGGSKMFGGGTKLTVL
modifications: Description of Artificial Sequence: SyntheticKPL26 VH polypeptide; Description of Artificial Sequence: SyntheticKPL26 VL polypeptide

Legend:
[1] = system: O1 LPS activation of NF-κB in RAW264.7-lux cells; assay: LPS neutralization assay (NF-κB luciferase, RAW264.7-lux), O1 LPS; assay type: cell-based, murine; set-up: key to LPS Neut O1: +++: Strongly positive activity; +: Positive activity; +/−: Somewhat positive depending upon the test conditions; details: for neutralizing activity against O1 LPS (NF-κB activation): human IgG1 format
Protocol: (§1) Activation of TLR4 receptors by bacterial LPS leads to downstream activation of the NF-κB transcriptional regulator. A decrease in induction of NF-κB-responsive luciferase activity was used to quantify LPS neutralization activity by LPS mAbs. A murine RAW264.7 macrophage cell line was engineered to carry a firefly luciferase reporter gene under the control of an NF-κB-responsive promoter (RAW264.7-lux). Serially diluted antibody stocks were mixed with LPS in a 1:1 ratio and incubated at 4° C. for 1 hr. Antibody/LPS mixtures were then diluted 1:10 into assay plates containing pre-seeded RAW264.7-lux cells (4e5 cells/well), which were then placed at 37° C. with 5% CO2 for 2.5 hours. Following incubations, Steady Glo solution (Promega) was added to each well and incubated for another 20 min protected from light. The relative light units (RLUs) were measured using a multi-mode microplate reader (Synergy 2, Biotek or envision multilabel plate reader, Perkin Elmer). The percentage of inhibition was determined by comparing RLU derived from assays with no antibodies to RLU derived from assays with anti-K. pneumoniae mAbs and assays performed with a negative control mAb. […] All mAbs were tested in human IgG1 format.

[2] = system: O2 LPS activation of NF-κB in RAW264.7-lux cells; assay: LPS neutralization assay (NF-κB luciferase, RAW264.7-lux), O2 LPS; assay type: cell-based, murine; set-up: key to LPS Neut O2: +++: Strongly positive activity; +: Positive activity; +/−: Somewhat positive depending upon the test conditions; details: for LPS Neut O2: Table 7 summary; for neutralizing activity against O2 LPS (NF-κB activation): human IgG1 format
Protocol: as §1

[3] = system: K. pneumoniae 8570ΔcpsBLux (O2); assay: Opsonophagocytic killing (OPK) assay, O2 capsule mutant; assay type: cell-based, Klebsiella pneumoniae; set-up: key to D Capsule OPK O2: +++: Strongly positive activity; +: Positive activity; +/−: Somewhat positive depending upon the test conditions; details: for D Capsule OPK O2: capsule mutant strain 8570ΔcpsB lux (O2); for OPK activity against O2 capsule mutant: secondary screening
Protocol: (§2) OPK activity of anti-O2 LPS mAbs was tested against O1 and O2 strains. Briefly, log phase cultures of luminescent K. pneumoniae strains 8570ΔcpsBLux (O2) and 43816ΔcpsBLux (O1) were diluted to ˜2×10^6 cells/ml. K. pneumoniae cells, 5e5/well dimethylformamide (DMF) differentiated HL-60 cells, cleared baby rabbit serum (1:10 Cedarlane), and a series dilution of antibodies (2 ng-2.5 μg/mL) were mixed in 96-well plates and incubated at 37° C. for two hours with shaking (250 rpm). The relative light units (RLUs) were then measured using a multi-mode microplate reader (Synergy 2, Biotek or envision multilabel plate reader, Perkin Elmer). The percentage of killing was determined by comparing RLU derived from assays with no antibodies to RLU derived from assays with anti-K. pneumoniae mAbs and assays performed with a negative control mAb. Positive killing was determined where the percentage of killing is above 40%.

K. pneumoniae O2 = assay: Mouse protection models (O2), Table 7 summary; assay type: in vivo, Klebsiella pneumoniae; set-up: key: +++: Strongly positive activity; +: Positive activity; +/−: Somewhat positive depending upon the test conditions; details: mouse pneumonia models
Protocol: As described in more detail in below, anti-O2 LPS mAbs were tested for: 1) binding to O1 and O2 LPS (see Example 5); 2) LPS neutralization (LPS-Neut) against O1 and O2 LPS (see Example 7); 3) OPK against capsule mutant strain 43816ΔcpsB lux (O1) and 8570ΔcpsB lux (O2) (see Example 8); and 4) protective activity in pneumonia models (see Example 9). O2 LPS mAbs were subsequently divided into three classes based on their in vitro activities. Class I mAbs were characterized as Binding (O1+O2+)/OPK (O1−O2+); Class 2 mAbs were characterized as Binding (O1+O2+)/OPK (O1+O2+); and Class III mAbs were characterized as Binding (O1±O2+)/OPK (O1−O2+).
(§3) C57/BL6 mice were obtained from Jackson Laboratories and maintained in a special pathogen-free facility. All animal experiments were conducted in accordance with Institutional Animal Care and Use Committee (IACUC) protocol and guidance. K. pneumoniae strains were grown on agar plates overnight and diluted in saline at proper concentration. The inoculum titer was determined by plating a serial dilution of bacteria onto agar plates prior to and post challenge. In acute pneumonia models, C57/BL6 mice were inoculated with 1e4 to 2e8 colony-forming units (CFU) of K. pneumoniae clinical isolates in 50 μl saline intranasally. Anti-K pneumoniae monoclonal antibodies (mAbs) and human IgG1 control antibodies were given 1-24 hour post bacterial challenge (therapeutic dosing). Mouse survival was monitored daily until up to day 8. Survival data of representative experiments were plotted in Graphpad Prism software.
(§4) Mice were challenged with 2e8 CFU of Klebsiella pneumoniae Carbanpenemase (KPC) strain Kp961842_O2 or with 3e8 CFU of KPC strain Kp977778_O2, followed by the administration of anti-O2 mAbs. When administered at a concentration of 2 mg/kg 1 hour post bacterial infection, Class III anti-O2 LPS mAbs KPN42, KPN179-IgG1, and KPS44v2017 protected mice from lethal bacterial challenge with the multi-drug resistant KPC strains Kp961842_O2 (FIG. 6, left panel, and FIG. 10) and Kp977778_O2 (FIG. 6B, right panel).

KPC strain Kp961842_O2 = assay: Lethal pneumonia model, KPC strain Kp961842_O2; assay type: in vivo, Klebsiella pneumoniae; details: C57/BL6 mice, 2e8 CFU; mAb 2 mg/kg 1 hour post infection; survival
Protocol: as §3, §4

KPC strain Kp977778_O2 = assay: Lethal pneumonia model, KPC strain Kp977778_O2; assay type: in vivo, Klebsiella pneumoniae; details: C57/BL6 mice, 3e8 CFU; mAb 2 mg/kg 1 hour post infection; survival
Protocol: as §3, §4

[4] = system: K. pneumoniae 43816ΔcpsBLux (O1); assay: Opsonophagocytic killing (OPK) assay, O1 capsule mutant; assay type: cell-based, Klebsiella pneumoniae; set-up: key to D Capsule OPK O1: +++: Strongly positive activity; +: Positive activity; +/−: Somewhat positive depending upon the test conditions
Protocol: as §2

O1 LPS = assay: ELISA binding to O1 LPS; set-up: species or system Klebsiella pneumoniae; details: secondary screening
Protocol: (§5) The coated plates were incubated with cell culture supernatants from polyclonally stimulated lymphocytes (AMVBRA) or from monoclonal immortalized B cells (donor interrogations) containing fully human antibodies or with diluted plasma samples (PBMC donor selections) for 1 hour at room temperature. The plates were then washed with PBS containing 0.1% Tween-20 (PBS-T). Secondary antibody was added; either Alkaline Phosphatase-conjugated Goat Anti-Human IgG-AP (Southern Biotech, 2040-04, 1:1000 in PBS-B) or Peroxidase AffiniPure F(ab′)2 Fragment Goat Anti-Human IgG, Fc Fragment Specific (Jackson ImmunoResearch #309 036 098, 1:5000 in PBS-B) were used. Secondary antibodies were typically incubated for 1 h. Plates were washed three times with PBS-T, and P-NitroPhenyl Phosphate (pNPP, Sigma-Aldrich, cat #N2765-100TAB) or Sureblue (KPL, 53-00-03) substrates were added and incubated for 10 min or until the development of a colorimetric reaction. In the case of the HRP substrate Sureblue, the reaction was stopped by adding an equal volume of 0.2N HCl. The absorbance at 405 nm (pNPP) or 450 nm (Sureblue) was measured by a microplate reader (Biotek, Elx808).
(§6) The coated plates were incubated with serial dilutions of the monoclonal antibodies for 1 hour at room temperature. The plates were then washed with PBS containing 0.1% Tween-20 (PBS-T). Alkaline Phosphatase-conjugated Goat Anti-Human IgG (Southern Biotech, 2040-04, 1:1000 in PBS-B) was added. The secondary antibody reactions were incubated for 1 h. Plates were washed three times with PBS-T, and P-NitroPhenyl Phosphate (pNPP, Sigma-Aldrich, cat #N2765-100TAB) substrate was added and incubated for 30 min or until the development of a colorimetric reaction. The absorbance at 405 nm was measured by a microplate reader (Biotek, Elx808). The data was plotted with Graphpad Prism software. Representative mAbs from each class were tested for their binding to O1 LPS (FIG. 2A) and O2 LPS (FIG. 2B), and EC50 values were obtained (FIG. 2C). The majority of the anti-O2 LPS mAbs bound to both O1 and O2 LPS by ELISA. […] None of these LPS mAbs bound to the 03, 04, 05, 07, or 012 LPS serotypes (see e.g., FIG. 1A).

K. pneumoniae O1 = assay: Lethal O1 pneumonia model; assay type: in vivo, Klebsiella pneumoniae; set-up: key to Mouse protection models (O1): +++: Strongly positive activity; +: Positive activity; +/−: Somewhat positive depending upon the test conditions
Protocol: as §3
Mice were challenged with 2e8 CFU of Klebsiella pneumoniae Carbanpenemase (KPC) strain Kp961842_O2 or with 3e8 CFU of KPC strain Kp977778_O2, followed by the administration of anti-O2 mAbs. […]

O2 LPS = assay: ELISA binding to O2 LPS; set-up: species or system Klebsiella pneumoniae; details: secondary screening, ELISA
Protocol: as §5, §6

Molecule	neutralizing activity against O1 LPS (NF-κB activation) [1]	LPS Neut O2 [2]	neutralizing activity against O2 LPS (NF-κB activation) [2]	D Capsule OPK O2 [3]	OPK activity against O2 capsule mutant [3]	Mouse protection models (O2) (K. pneumoniae O2)	protection from lethal bacterial challenge, Kp961842_O2 (KPC strain Kp961842_O2)	protection from lethal bacterial challenge, Kp977778_O2 (KPC strain Kp977778_O2)	LPS Neut O1 ([1]; Table 7 summary)	neutralization of LPS-O1 ([1]; secondary screening)	OPK activity against O1 strain ([4]; 43816ΔcpsBLux (O1), positive killing above 40%)	D Capsule OPK O1 ([4]; capsule mutant strain 43816ΔcpsB lux (O1))	OPK activity against O1 capsule mutant ([4]; secondary screening)	neutralization of LPS-O2 ([2]; secondary screening)	OPK activity against O2 strain ([3]; 8570ΔcpsBLux (O2), positive killing above 40%)	binding to LPS-O1 (O1 LPS)	protection in lethal O1 pneumonia model (K. pneumoniae O1; mice, survival)	Mouse protection models (O1) (K. pneumoniae O1; mouse pneumonia model, O1)	binding to LPS-O2 (O2 LPS)
B1	no activity	+/−	moderate neutralizing activity	+++	strong OPK activity	+++													
B2		+/−		+++		+++	protected	protected											
B3	blocked	+	blocked	+	showed OPK activity		did not show protection		+	neutralize	induced OPK activity	+	showed OPK activity	neutralize	induced OPK activity	confirmed to bind	moderate protection	+	confirmed to bind
